# Publication PMC8646600 (2021)
# B1: S-E6 full-length human IgG4e1(S228P) antibody (antibody, V domains shown)
# VH: QVTLRESGPGLVKPSETLSLTCAVSGGSLSSVNYYWSWIRQHPGKGLEWIGYIYYSGSTNYNPSLKSRVTMSLDTSKNQFSLKLSSVTAADTAVYYCATPGAIMGALHIWGQGTLVTVSS
# VL: QAVLTQPSSASSTPGQRVIISCSGSSSNIGSNTVSWYQQVPGAAPKLLIYFDYRRPSGVPDRFSGTRSGTSASLGISGLQSEDEADYYCAAWDDSLSAWVFGRGTKLTVL
# B2: S-E6 Fab (Fab, V domains shown)
# VH: B1 VH
# VL: B1 VL
# B3: S-B8 Fab (Fab, V domains shown)
# VH: QVQLVQSGGGLIQPGGSLRLSCAASGFTVSLSHMNWVRQAPGKGLEWVSITYGDGNSDYADSVKGRFTISRDNSKNTLYLQMNSLRAEDTAVYYCAREYYYGMDVWGQGTTVTVSS
# VL: not shown
# B4: S-B8 full-length human IgG4e1(S228P) antibody (antibody, V domains shown)
# VH: B3 VH
# VL: not shown
# Tests used:
# [1] = target: SARS-CoV-2 spike RBD (S-RBD), hFc tag removed by thrombin digestion, biotinylated (SARS-CoV-2, UniProt P0DTC2 319-541); experiment: BLI
# [2] = target: SARS-CoV-2 RBD titrated over immobilised Fabs (construct not stated) (SARS-CoV-2, UniProt P0DTC2 319-541); experiment: BLI
Binder,koff [1] [s⁻¹],koff [2] [s⁻¹]
B1,0.000865,–
B2,–,0.00196
B3,–,0.0027
B4,0.00267,–
